In article PMC6784197:
Where a chain is given by its changes, count along the chain named. Values belong to the binder of their own block, whether it stands above or below them.

How the values were obtained:
[1] = target: T1, hCD138 (human Syndecan-1), extracellular domain (human) (UniProt P18827); experiment: SPR; bivalent (avidity) set-up: CD138 amine-coupled to CM5 chip (240 RU), IgG as analyte 33-300 nM; Biacore T200, HBS-P+ pH 7.4, 25 °C; 1:1 Langmuir model
T1 sequence: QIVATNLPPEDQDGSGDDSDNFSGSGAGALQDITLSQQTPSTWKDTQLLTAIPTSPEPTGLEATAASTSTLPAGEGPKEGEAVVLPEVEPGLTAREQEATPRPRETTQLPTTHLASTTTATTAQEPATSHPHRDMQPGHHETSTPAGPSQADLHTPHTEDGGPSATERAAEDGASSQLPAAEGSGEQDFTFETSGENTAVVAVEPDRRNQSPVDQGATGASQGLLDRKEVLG

<CD138> Hb-La = experiment: SPR; monovalent (affinity) set-up: antibody captured via anti-hFc on CM5 chip, hCD138 as analyte 66-600 nM; Biacore T200, HBS-P+ pH 7.4, 25 °C; 1:1 Langmuir model
<CD138> Hw-La = experiment: as above
<CD138> Ha-La = experiment: as above
[2] = target: <CD138> Hw-Lw (parent IgG); experiment: as above
<CD138> Ha-Lw = experiment: as above
<CD138> Hb-Lg = experiment: as above
<CD138> Ha-Lg = experiment: as above
<CD138> Hb-Lw = experiment: as above
<CD138> Hg-Lw = experiment: SPR; monovalent (affinity): anti-CD138 IgG variants (30 nM) captured via anti-hFc on CM5; hCD138 as analyte, 66-600 nM; HBS-P+ pH 7.4, 25 °C; 1:1 Langmuir model; Biacore T200

- Kd [1]: 2.4 nM
- koff [1]: 0.0005 s⁻¹
- kon [1]: 390000 M⁻¹ s⁻¹
B1: <CD138> Hb-Lg (antibody, V domains shown)
VH: QVQLQQSGSELMMPGASVKISCKATGYTFTGYWIEWVKQRPGHGLEWIGEILPGTGRTIYNEKFKGKATFTADISSNTVQMQLSSLTSEDSAVYYCARRDYYGNFYYAMDYWGQGTSVTVSS
VL: DIQMTQSTSSLSASLGDRVTISCSASQGISNYLNWYQQKPDGTVELLIYYTSSLHSGVPSRFSGSGSGTDYSLTISNLEPEDIGTYYCQQYSKLPRTFGGGTKLEIK

- Kd [1]: 0.42 nM
- koff [1]: 7.1e-05 s⁻¹
- kon [1]: 170000 M⁻¹ s⁻¹
B2: <CD138> Ha-Lw (antibody, V domains shown)
VH: B1 VH with T30S, G31N, R57S
VL: B1 VL with S30N, S53T, H55Q

- Kd [1]: 0.4 nM
- koff [1]: 6.4e-05 s⁻¹
- kon [1]: 160000 M⁻¹ s⁻¹
B3: <CD138> Ha-La (antibody, V domains shown)
VH: B1 VH with T30S, G31N, R57S
VL: B1 VL with S30N, S53T

- Kd [1]: 230 nM
- koff [1]: 0.051 s⁻¹
- kon [1]: 210000 M⁻¹ s⁻¹
B4: <CD138> Hg-Lw (antibody, V domains shown)
VH: B1 VH with T55S, R57S, I59N
VL: B1 VL with S30N, S53T, H55Q

- Kd [1]: 0.31 nM
- koff [1]: 0.00012 s⁻¹
- kon [1]: 400000 M⁻¹ s⁻¹
B5: <CD138> Hb-La (antibody, V domains shown)
VH: B1 VH
VL: B1 VL with S30N, S53T

- Kd [1]: 0.83 nM
- koff [1]: 0.00029 s⁻¹
- kon [1]: 160000 M⁻¹ s⁻¹
B6: <CD138> Ha-Lg (antibody, V domains shown)
VH: B1 VH with T30S, G31N, R57S
VL: B1 VL

- Kd [1]: 0.28 nM
- koff [1]: 0.00011 s⁻¹
- kon [1]: 350000 M⁻¹ s⁻¹
B7: <CD138> Hb-Lw (antibody, V domains shown)
VH: B1 VH
VL: B1 VL with S30N, S53T, H55Q

- Kd (<CD138> Hb-La): 140 nM
- koff (<CD138> Hb-La): 0.025 s⁻¹
- kon (<CD138> Hb-La): 170000 M⁻¹ s⁻¹
- Kd (<CD138> Hw-La): 71 nM
- koff (<CD138> Hw-La): 0.0061 s⁻¹
- kon (<CD138> Hw-La): 87000 M⁻¹ s⁻¹
- Kd (<CD138> Ha-La): 240 nM
- koff (<CD138> Ha-La): 0.013 s⁻¹
- kon (<CD138> Ha-La): 55000 M⁻¹ s⁻¹
- Kd [2]: 80 nM
- koff [2]: 0.0062 s⁻¹
- kon [2]: 77000 M⁻¹ s⁻¹
- Kd (<CD138> Ha-Lw): 190 nM
- koff (<CD138> Ha-Lw): 0.015 s⁻¹
- kon (<CD138> Ha-Lw): 76000 M⁻¹ s⁻¹
- Kd (<CD138> Hb-Lg): 610 nM
- koff (<CD138> Hb-Lg): 0.079 s⁻¹
- kon (<CD138> Hb-Lg): 130000 M⁻¹ s⁻¹
- Kd (<CD138> Ha-Lg): 380 nM
- koff (<CD138> Ha-Lg): 0.045 s⁻¹
- kon (<CD138> Ha-Lg): 120000 M⁻¹ s⁻¹
- Kd (<CD138> Hb-Lw): 150 nM
- koff (<CD138> Hb-Lw): 0.027 s⁻¹
- kon (<CD138> Hb-Lw): 180000 M⁻¹ s⁻¹
B8: hCD138 (human Syndecan-1), extracellular domain (domain or fragment)
chain: T1 sequence

- fold reduction of affinity against the parent Hw-Lw (<CD138> Hg-Lw): > 100 fold
B9: hCD138 (human Syndecan-1, R&D Systems 2780-TS) (domain or fragment)
chain: T1 sequence
